The record followed here is the supplement of paper PMC12764529.

± gives the half width of the 95% confidence interval.

Data set [1] in a line: folding stability dG unfold from trypsin proteolysis; higher = more stable. In a few lines:
(§1)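 K50 was inferred by Bayesian fitting of sequencing counts obtained after protease digestion of designed mini-proteins. Unfolding free energy was derived by comparison with a sequence-predicted unfolded-state K50 and a shared folded-state K50, for each protease or both combined. The mini-proteins were under 80 residues, had no cysteine, were carried in a PA-tagged cDNA display construct, and were kept only if AlphaFold2 dimer inter-PAE exceeded 15.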

Data set [2] is described as follows: folding stability dG unfold from chymotrypsin proteolysis; higher = more stable. In a few lines: as §1
Data set [3] in a line: folding stability dG unfold (combined trypsin and chymotrypsin); higher = more stable. In a few lines: as §1

In the case of “SAGSVTTITDPAGTTTEIQPLPDGSLLTTTTTHTTNPATGGATTTTTTTLVSPVPGQPSTTTSTTTTPASAG [r5_424_JUSTAS]”, the “folding stability dG unfold” value came out at 1.58 ± 0.039 kcal/mol in data set [1], 0.195 ± 0.027 kcal/mol in data set [2] and 1 ± 0.051 kcal/mol in data set [3].

For “SAGSWIDKLPPSFTSSSPLAKRPDGTRVYAYEYTTESSPSILLVEFDASGRLRKIEKLDPETAAKAIAASAG [r5_73_JUSTAS]”, the “folding stability dG unfold” value turned out to be 1.19 ± 0.031 kcal/mol in data set [1], 1.14 ± 0.071 kcal/mol in data set [2] and 1.22 ± 0.11 kcal/mol in data set [3].

On to “SAGSYKLVVKAKAPKGPARIRVFVRLPGGEEKPVAEAEVGSGEVADIEITFPSGKPIDPKNIRVEIVPPSAG [r5_287_TrMRF]”, for which the “folding stability dG unfold” value is 1.88 ± 0.03 kcal/mol in data set [1], 1.65 ± 0.066 kcal/mol in data set [2] and 1.8 ± 0.058 kcal/mol in data set [3].

Regarding “SAGTIRGLPAEFAKRIANELAQNGYEIVAVTVTYDPPNGTFKIEVEMRPPNGKVREHDIEIQVRLPPDDSAG [r5_985_TrROS]”, the “folding stability dG unfold” value in data set [1] was 1.72 ± 0.057 kcal/mol; in data set [2], 2.7 ± 0.092 kcal/mol; in data set [3], 2.45 ± 0.17 kcal/mol.

For the sequence “SAGTIWIPVDELKELGIPPGDTAEEFKQQISDRLMEQGWTVKIPDIEVEPLDPNDGRVWVRINIEFKPPSAG [r5_23_TrROS]”, the figures for the “folding stability dG unfold” value in data set [1], in data set [2] and in data set [3] were 1.26 ± 0.05 kcal/mol, 0.42 ± 0.2 kcal/mol and 0.94 ± 0.17 kcal/mol, respectively.

On to “SAGTREQVKAIAREIANEIWDTFPDMRGQKFKVKIKVEPEPNGWVRVKVTIQFPGGVQYTFPIWIPVESAGG [r19_194_TrROS]”, for which the “folding stability dG unfold” value in data set [1] amounted to 3.06 ± 0.11 kcal/mol; in data set [2] it was 4.4 ± 0.23 kcal/mol; in data set [3] it was 4.05 ± 0.23 kcal/mol.

On to “SAGVEELFRRLGAEVSVTRRPDGSLVVTFRLPDGRTIVVFVTPDGVRVVVVDPSGERRTLSLEDLKRLASAG [r14_578_TrMRF]”, for which the figures for the “folding stability dG unfold” value in data set [1], in data set [2] and in data set [3] were 3.38 ± 0.059 kcal/mol, 4.098 ± 0.035 kcal/mol and 3.83 ± 0.058 kcal/mol, respectively.

“SAGVKPTPSGKNILEIDPETGKIRFVNNNGELFELPTGNDSLDAAIKEAVEKLGYPPDTPFNIDEIKIGSAG [r5_923_TrMRF]”: the “folding stability dG unfold” value in data set [1] turned out to be 1.46 ± 0.044 kcal/mol; in data set [2], 1.76 ± 0.065 kcal/mol; in data set [3], 1.54 ± 0.19 kcal/mol.

On to “SAGWIIKIYFPDKKKEIMISRFPDGQWWMVQVHDKKGEPRQTIPAGMPVDELLKDFPDAKVEVYPFEPPSAG [r5_314_TrROS]”, for which the “folding stability dG unfold” value stood at 1.55 ± 0.039 kcal/mol in data set [1], 2.59 ± 0.051 kcal/mol in data set [2] and 2.21 ± 0.086 kcal/mol in data set [3].

Turning to “SAGWKIKLENIEFFPNGRIRVMFEIEDPNGRPWRVQAQFDPDNPGKIKIKVENPDNGQEQEITFTIKPPSAG [r5_345_TrROS]”, the “folding stability dG unfold” value in data set [1] is 3.15 ± 0.18 kcal/mol; in data set [2], 4.13 ± 0.1 kcal/mol; in data set [3], 3.83 ± 0.24 kcal/mol.

As to “SAGWQTIDFPIPPGEDIPIPIGNRPLRIQVDPNKNKYEIFNPFLGYRISIDVDPGAGWIKITIEPLKPPSAG [r5_302_TrROS]”, the “folding stability dG unfold” value in data set [1] came to 3.34 ± 0.13 kcal/mol; in data set [2], 4.5 ± 0.15 kcal/mol; in data set [3], 3.98 ± 0.26 kcal/mol.

For “SAGYIIGYPIIEELFNAGKPEEIRKILKEAVEKDPDKIIIIEVPENPEIAKAIEEAFKEEGIPLIIIPESAG [r14_236_TrMRF]”, the “folding stability dG unfold” value in data set [1] amounted to 1.02 ± 0.035 kcal/mol; in data set [2], 0.81 ± 0.1 kcal/mol; in data set [3], 0.929 ± 0.065 kcal/mol.

In the case of “SAGYWEFEIELPNGRKIEIEWQRMNGRYWFKIEVLDDNGKPVREVPIPFPNPEMPFEQMIKNAVKKILDSAG [r5_630_TrROS]”, the entries for the “folding stability dG unfold” value in data set [1], in data set [2] and in data set [3] were 2.44 ± 0.047 kcal/mol, 3.898 ± 0.032 kcal/mol and 3.41 ± 0.15 kcal/mol, respectively.

For the sequence “SAHTWEIWFPPGLTPEEIQEKLKEEFPGYEIDVDVERDPEPGWYRIEVTMKDPQQRRRVQKKIREILQESAG [r14_443_TrROS]”, the “folding stability dG unfold” value in data set [1] was 2.34 ± 0.12 kcal/mol; in data set [2], 2.39 ± 0.048 kcal/mol; in data set [3] it was 2.4 ± 0.14 kcal/mol.

Take “SAIEIYIYPDNWMISIEPPNPNGPEKEIMIPIDKDDLKNPEFLKEIADEIMENGIPVEADIMPPGQPIPSAG [r14_60_TrROS]”: the “folding stability dG unfold” value in data set [1] is 0.857 ± 0.27 kcal/mol; in data set [2], -0.0516 ± 0.13 kcal/mol; in data set [3], 0.307 ± 0.38 kcal/mol.

As for “SAIVIPIRVQMPPNDPDALEQAKEIADYIADMMMEEGYPFKIEVDDIEWERNPNGHWTVEIPIKIKPPPSAG [r14_48_TrROS]”, the “folding stability dG unfold” value in data set [1] came to 1.45 ± 0.18 kcal/mol; in data set [2] it was 1.25 ± 0.083 kcal/mol; in data set [3], 1.38 ± 0.15 kcal/mol.

With “SAKEPVYLVRIRVEIYKDGKPVKELEIEVEVEEGETLEEVLERLREELEKKGYKIVKVEIEVRKLPPPESAG [r14_979_TrROS_Hall]”, the “folding stability dG unfold” value in data set [1] was 3.35 ± 0.13 kcal/mol; in data set [2], 5.04 ± 0.15 kcal/mol; in data set [3], 4.72 ± 0.19 kcal/mol.

Turning to “SAKGTLELTFPTTKVTVEVEKVDPVNNKVYARAVFPNGFVVDAVFDPKTGKVYVEVKEVKPTKDGGYSLSAG [r14_466_TrMRF]”, the “folding stability dG unfold” value in data set [1] came out at 1.24 ± 0.046 kcal/mol; in data set [2], 1.46 ± 0.11 kcal/mol; in data set [3], 1.44 ± 0.15 kcal/mol.
